The supplement of paper PMC9170038

Experiments:
MS2 coat protein [1] = assay: apparent KD of MS2 coat protein; designed switch direction (-1 OFF switch, 1 ON switch): 1; higher = weaker reporter binding; conditions: Eterna round: R98
Description: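 RNA-MaP: designed FMN/MS2 RNA switches (84 nt design region) are transcribed on-chip within common flanks and titrated with SNAP-549-labelled MS2 coat protein (about 1-3000 nM) in 100 mM Tris pH 7.5, 80 mM KCl, 4 mM MgCl2, without or with 200 uM FMN. Median apparent KD per design; activation ratio = KD,OFF / KD,ON.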

MS2 coat protein [2] = assay: apparent KD of MS2 coat protein, switch OFF state (with FMN for OFF switches, without FMN for ON switches); designed switch direction (-1 OFF switch, 1 ON switch): 1; higher = weaker reporter binding; conditions: FMN input: 0 or 200 uM; Eterna round: R93 (includes R88 designs)
In short: (§1)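 Binding of SNAP-549-labelled MS2 coat protein was measured on designed RNA switches transcribed on-chip from Illumina sequencing clusters. The protein rose in twofold steps from 0.7 or 1.5 nM to 3 µM, with 0.8–1.5 h per step early on and 10–20 min per step later, in 100 mM Tris-HCl pH 7.5, 80 mM KCl, 4 mM MgCl2, without or with constant ligand. Each design's apparent KD is the median of fits to its normalised cluster binding curves.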

MS2 coat protein [3] = assay: apparent KD of MS2 coat protein, switch ON state; designed switch direction (-1 OFF switch, 1 ON switch): 1; higher = weaker reporter binding; conditions: FMN input: 0 or 200 uM; Eterna round: R93 (includes R88 designs)
In short: as §1

| Sequence | apparent KD of MS2 coat protein (MS2 coat protein [1]; input ligand: FMN 200 uM) | apparent KD of MS2 coat protein (MS2 coat protein [1]; input ligand: none) | apparent KD of MS2 coat protein (MS2 coat protein [2]) | apparent KD of MS2 coat protein (MS2 coat protein [3]) |
| --- | --- | --- | --- | --- |
| UGGAUCAAUACAGGAUAUGGUGACGCACAUGAGGAUCACCCAUGUCCGCAGCGUGCUAAGCACGCCCAGAAGGGUAUUGACUUG [Enxe] | 0.106 µM | 0.858 µM | – | – |
| AGGUAGGUCACAGGAUAUCCCGUGAGCUACAUGAGGAUCACCCAUGUAUCACGACGAAAGAAGAAGGAGAAGGGUGACCCUGAU [Atqula] | 0.0283 µM | 0.186 µM | – | – |
| ACCAAUGGGUGAGGAUAUGCACAGGAUCACCGUGUAGAAGGCAUCAGGUAGAAGGUGCAGAGGAUCACCCUGUAAGGAUAUAUC [pwkr2 ssNG1 DX.14] | 0.885 µM | 0.563 µM | – | – |
| UGGGAAUGAACAUGAGGAUCACCCAUGUCCCGGAAACGGAAUGAGGAUAUCCAUAGCAAAGCUAUGGAGAAGGCAUGGGUCCCA [SaneState 20 - Jieux - Same State NG 2] | 0.475 µM | 0.756 µM | – | – |
| AAUAAUCAGGUAGGAUAUGCUCAGGAUAACUGAGCAGAAGGACUAGAAACCUGAGGAUCACCCAGGUAACUGGAAUAAUAAUAA [Same State NG1 - A3C, U17G Submission 6B] | 0.0574 µM | 0.121 µM | – | – |
| CACUCCCGGUGAGGAUAUGCACAGGAUCACCGUGUAGAAGGCAUCAGGUAGAAGGUGCAGAGGAUCACCCUGUAAGGAUAUAUC [pwkr2 ssNG1 DX.12] | 0.0945 µM | 0.3 µM | – | – |
| CACGUCCUCACAGGAUAUGCUGGACUUUGUCCAGCAGAAGGGUGACAUGAGGAUCACCCAUGUUAAAGGACGUGUAUAUUUAAU [Denovo 24] | 0.126 µM | 0.652 µM | – | – |
| GCUUGCGACGCAGGAUAUGGGUGCCUAAACACGAGGAUCACCCGUGUAAAGGAAGCGAAAAGCUCUCAGAAGGGCGUCGCAGGC [United States 7 - Jieux - Same State NG 2] | 0.0172 µM | 0.0192 µM | – | – |
| GUCCCAGUCACAGGAUAUGGCUCCGUAACGGAACCAGAAGGGUGAUAUUCAGAAAACACACAUGAGGAUCACCCAUGUAAUAAA [Tiorbiti] | 0.164 µM | 0.469 µM | – | – |
| AAAUAAAAUAUAGGAUAUGGAAACAUGAGGAUCACCCAUGUAAAAUAAAAUAAAUAAUAAUAUAACCAGAAGGAUAAAAUAAAA [LRO001_SS NG 2] | 0.0402 µM | 0.0306 µM | – | – |
| UCCGCUAUCGCAGGAUAUUACAUGGGAAAGAGUACAUGAGGAUCACCCAUGUAAAAGAUCAUAAAUAAGAAGGGCGAUAGCGGA [Lame State 9 - Jieux - Same State NG 2] | 0.214 µM | 0.0188 µM | – | – |
| AGUUACAAACUCAACAUGAGGAUCACCCAUGUACUCUCAUGUAAGGAUAUACAUUCGUAUAGAAAGUAGAAGGUACUAAUUAUG [JR_SSNG3_Sub90] | 0.485 µM | 0.659 µM | – | – |
| UAAUUAUGGUGAGGAUAUGCACAGGAUCACCGUGUAGAAGGCAUCAGGUAGAAGGUGCAGAGGAUCACCCUGUAAGGAUAUAUC [pwkr2 ssNG1 DX.18] | 0.102 µM | 0.722 µM | – | – |
| GGAGACCACACAGGAUAUGCUGGACUUUGUCCAGCAGAAGGGUGUUUAACAUGAGGAUCACCCAUGUAGGUCUCCAAAUUUAAU [Denovo 59] | 0.0177 µM | 0.0605 µM | – | – |
| UGAAGACAUGAGGAUCACCCAUGUGGGAUUAUGGGAGGAUAUACAAAGACGAGAGUCAGAGUAGAAGGCCUAGGAU [salish99-ss1-117(!)] | – | – | 0.0579 µM | 0.0314 µM |
| UAUAGACAUGAGGAUCACCCAUGUAGAAUUAUGGGAGGAUAUACAAAGACGAGAGUCAGAGUAGAAGGCCUAGGAA [salish99-ss1-152] | – | – | 0.0557 µM | 0.024 µM |
| AUAAUAUUAAGCAAGGAUAUACUAAAGUAAACAUGAGGAUCACCCAUGUAAAAAAAAAAACUCAUGUAGAAGGUGCAUAAAUAAA [moonwalk 10] | – | – | 0.0331 µM | 0.00892 µM |
| AGGAAACAUGAGGAUCACCCAUGUAUAAAAAUGGGAGGAUAUACAAAGACGAAAGUCAAAGUAGAAGGCCUAAAAA [76%, Meechl, 7] | – | – | 0.0515 µM | 0.0188 µM |
| AAUACAAAUAGUCAGGAUAUCAAAAAUAAGACAUGAGGAUCACCCAUGUAAUAAGUAAAAGUAAAUGAGAAGGGACAGGGUGAAA [JR_SS002_Sub401] | – | – | 0.0592 µM | 0.53 µM |
| AUAAAGAAAAGGCAGGAUAUGUAAACUAAAACAUGAGGAUCACCCAUGUGGGAAAUAAAAUAAAAACAGAAGGGCCAAAAGAAUA [Designing denovo 17] | – | – | 0.0328 µM | 0.0191 µM |

| Sequence | apparent KD of MS2 coat protein (MS2 coat protein [1]; input ligand: FMN 200 uM) | apparent KD of MS2 coat protein (MS2 coat protein [1]; input ligand: none) | apparent KD of MS2 coat protein (MS2 coat protein [2]) | apparent KD of MS2 coat protein (MS2 coat protein [3]) |
| --- | --- | --- | --- | --- |
| AUAAAAGAAGCGAAGGAUAUCCAAAACUCAACAUGAGGAUCACCCAUGUAAAGAAAGAAAAAAUGGGAGAAGGUCGCAAAGAAUA [73%, More Fisker Same State 2, D3, 10] | – | – | 0.0267 µM | 0.0118 µM |
| GAAGACAUAGUUCAGGAUAUGGUAAUAGUCACAUGAGGAUCACCCAUGUGCAUUUAUAUGCGCGAUCAGAAGGGAGGUAGAUAAG [Mat - Same state - Malcolm Mod - D116] | – | – | 0.0183 µM | 0.0186 µM |
| UGAAAACAUGAGGAUCACCCAUGUAGAAAUAUGGGAGGAUAUACGAAGACGAAAGUCAAAGUAGAAGGCCUAAAUG [Mat - Same State 1 - Eli mod - D110] | – | – | 0.0721 µM | 0.0276 µM |
| AAAUAAAAAAAAAAGGAUAUUCAUGUGAAAACAUGAGGAUCACCCAUGUAAAAAAAUAAAAAUAAAAAGAAGGAAAAAUAAAAAA [SS2: 86 No MS2] | – | – | 0.841 µM | 0.571 µM |
| GGGACCAGCGUCAAGGAUAUUCAUAUAUAAACAUGAGGAUCACCCAUGUAGGCCAGGAGGCCUUGGGAGAAGGUGAGUUGGCUCG [Xegedibe] | – | – | 0.249 µM | 0.0405 µM |
| AAGAAAGUUUACGAGGAUAUGUUCCGCAGAACAUGAGGAUCACCCAUGUGAACAAGAAAGGCGACGCAGAAGGCGUGAGCUAUGA [Anesdien] | – | – | 0.106 µM | 0.0327 µM |
| AAAGGGAUUACGGAGGAUAUGGAAAAAAAAACAUGAGGAUCACCCAUGUCAAAAAAAAAAAAGGACCAGAAGGCCGUAAUCUCAAA [hsl_samestate2] | – | – | 0.0226 µM | 0.0199 µM |
| CGGAGACAUGAGGAUCACCCAUGUGAGAAGAGGCGAGGAUAUGGAAAUAAAGAAGAGAAAUGAGAAGGCGCGAGCC [salish99-SS1-082] | – | – | 0.0363 µM | 0.0406 µM |
| AGGAAACAUGAGGAUCACCCAUGUAAAAAUAUGGGAGGAUAUACGAAGACAAAAAAAAAAGUAGAAGGCCUAAAAG [Garnet 12] | – | – | 0.266 µM | 0.0652 µM |
| AGAAGACAUGAGGAUCACCCAUGUGGGAUUAUGGGAGGAUAUACAAAGACGAGAGUCAGAGUAGAAGGCCUAGGAG [salish99-ss1-114(!)] | – | – | 0.0664 µM | 0.0454 µM |
| GAAGACAUAGUUCAGGAUAUAGGAAUAGUCACAUGAGGAUCACCCAUGUGCAUUUAUAUGCGCGCUUAGAAGGGAGGUAGAUAAU [Mat - Same state - Malcolm Mod - D119] | – | – | 0.0212 µM | 0.0245 µM |
| AACAAUCUAUCUGAGGAUAUCAUGUAAAAAACAUGAGGAUCACCCAUGUCUAGGAAAACUAGAUAUGAGAAGGCAGAUAGAUUGA [SS1 - 596] | – | – | 0.0861 µM | 0.11 µM |
| ACUAUACAUGAGGAUCACCCAUGUCAGGUGGGACUAGGAUAUCAUAAGCCAGAGUAAGUAUGAGAAGGAGUAGAAA [JR_SS001_Sub305] | – | – | 0.0747 µM | 0.0732 µM |
| AACAAUCUAUCUGAGGAUAUAUGUCGAAAGACAUGAGGAUCACCCAUGUGAAAACAUGAAAAAUAAUAGAAGGCAGAUAGAUUGA [SS2: 1141] | – | – | 0.413 µM | 0.0805 µM |
| UGGAAACAUGAGGAUCACCCAUGUAAAAGGUGGUCAGGAUAUGCGAAAAGAAAAAGAAAAGUAGAAGGGACAAGAA [Mod of Eli's Mod] | – | – | 0.0678 µM | 0.0659 µM |
| AUAAAACAUGAGGAUCACCCAUGUAAAAAAGCAUGAGGAUAUAUAAAAAGAAAAAGAAGAAUAGAAGGCAUAAUAA [JR_SS001_Sub1223] | – | – | 0.0505 µM | 0.0607 µM |
| GAAAAACAUGAGGAUCACCCAUGUAGAAAUAUGGGAGGAUAUACAAAGACGAAAGUCAAAGUAGAAGGCCUGAAAG [77%, Mat - Mod of Eli, 1] | – | – | 0.136 µM | 0.0271 µM |
| GGCCAACAUGAGGAUCACCCAUGUCGCCAAAAUCGAGGAUAUGGGUGCCAGCUCGGGCAGCCAGAAGGCGACAAAA [Qutiqumais] | – | – | 0.224 µM | 0.0551 µM |
| AAGAAACAUGAGGAUCACCCAUGUGAGAAUAACACAGGAUAUGCGAAAAGAAACAAAGAAGCAGAAGGGUGAAGAA [Mat - Same State 1 - Tesla mod - 54] | – | – | 0.0403 µM | 0.02 µM |
| GAGGACAUAGUAUAGGAUAUAUGAAUAAUUACAUGAGGAUCACCCAUGUCCAUUUAUAUGGGAACAUAGAAGGGUGGUAGUUGUC [Mat - Same state - Malcolm Mod - D130] | – | – | 0.2 µM | 0.073 µM |
